Values of other authors, collected in publication PMC10213764 (Acta Pharmaceutica Sinica. B, 2023).

Conditions: continuous agitation, 37 °C

Substance: native insulin: Native insulin was purchased from Life Technologies
- time free from aggregation, formulated with CB[7]‒PEG conjugate: > 100 days
